Reference: the nanobody polyreactivity screen of Harvey et al. (2022)

Test: yeast display, Sf9 membrane polyspecificity reagent, FACS + sequencing; frameworks hold sequencing errors
How it was run: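 Nanobodies from a synthetic yeast display library (Saccharomyces cerevisiae BJ5465), induced 36–48 hours with galactose, were stained 1 hour at 4 °C with 10% biotinylated, detergent-solubilized Sf9 membrane reagent, enriched on streptavidin microbeads, then FACS-sorted. Anti-HA (expression) and streptavidin (reagent binding) fluorescence set low and high (top ~1%) gates. Polyreactivity labels come from the gate of origin. Genes were colony-PCR amplified, MiSeq 2 × 250 sequenced and filtered by CDR length.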

Row | Sequence | polyreactivity (PSR sort gate)
1 | QVQLVESGGGLVQAGGSLRLSCAASGRTFRYYAMGWYRQAPGKVRELVAAINWSGGSTYYADSVKGRFTISRDNAKNTVYLQMNSLKPEDTAVYYCAAVGHPSPPRTDLYYWGQGTQVTVSS | low polyreactivity
2 | QVQLVESGGGLVQAGGSLRLSCAASGSIFYGYVMGCYTQAPGKERELVAAISGGGSTNYADSVKGRFTISRDNAKNTVYLQMNSLKPEDTAVYYCNTEDWAVGSPEVEYEYDYWGQGTQVTVSS | low polyreactivity
3 | QVQLVESGGGLVQAGGSLRLSCAASGRIFYRNAMGWYRQAPGQERELVAGITRGGSTNYADSVKGRFTLSRDNAKNTVFLHMNSLKPEDTAVYYCAASWPSSLTYYYWGQGSQVTVSS | low polyreactivity
4 | QVQLHESGGGLVQAGGGLRLSSAASGSISSTGFMGWYRQAPGKEREPVAAIAPGTTTYYADSVKGRFTISRDNAKNTVYLQMNSLRPEDTAVYYCAVFTDNRVAFLYWGQGTQVTVSS | low polyreactivity
5 | QVQLVESGGGLVQAGGSLRLSCAASGFTFSSYAMGWYRQAPGKERELVAAISTRGGSTYYADSVKGRFTISRDNAKNTVYLQMNSLKPEDTAVYYCATGGRGGRRYEYWGQGTQVTVSS | low polyreactivity
6 | QVQLVESGGGIVQAGGSLRLSCAASGIIFSWYAMGWYRQAPGKERELVAAISKGGGSTYYADSVKGRFTISRDNAKNTVYLQMNSLKPEDTAVYYCAAASSYGYGYWGQGTQVTVSS | high polyreactivity
7 | QVQLVESGGGLVQAGGSLRLSCAASGSIFDVYGMGWYRQAPGKEREFVADITSRGTRTYYADSVKGRFTISRDNAKNTVYLQMNSLKPEDTAVYYCNTLVGVDFWLVDYWGQGTQVTLSS | low polyreactivity
8 | QVQLVESGGGLVQAGGSLRLSCAASGSTFPYYAMGWYRQAPGKERELVAAISSSGGSTYYADSVKGRFTISRDNAKNTVYLQMNSLKPEDTAVYYCATSSRYVDGYEMDYWGQGTQVSVSS | high polyreactivity
9 | QDQLVESGGGLVQAGGRLRLSSAASVSTFLPNTLGWYSQAHGKERELVADISWSGGSTYYADSVKGRLTISRDNAKNTVYLQMNRLKPEDTADSYCAADIASGYYWYDYWGQGTQVTVTS | low polyreactivity
10 | QVQLVESGGGLVQAGGSLRLSCAASGIIFDDYAMGWYRQAPGKERELVAAIRSGVSTNYADSVKGRFTISRDNAKNTVYLQMNSLKPEDTAVYYGAARNTAPYFTEYDYWGQGTQVTVSS | low polyreactivity
11 | QVQLVESGGGLVQAGGSLRLSCAASGFIIGSYAMGWYRQAPGTERELVAAITRSGGNTYYADSVKGRFTISRDNAKNTVYLQMNSLKPEDTAVYYCAAYSGYWYDYWGQGTQVTVSS | high polyreactivity
12 | QVQLVESGGGLVQAGGSLRLSCAASGRIFRYYAMGWYRQAPGKERELDAAISRSGGSTYYADSVKGRFTISRDNAKNTVYLQMNSLKPEDTAVYYCAARVYRYGAMDYWGQGTQVTVSS | high polyreactivity
13 | QVQLVESGGGLVQAGGSLRLSCAASGIISRWYAMGWYRQAPGKERELVAAIRWSGGRTYYADSVKGRFTISRDNAKNTVYLQMNSLKPEDTAVYYCAADVRQRGIYGPGPHYYWGQGTQVTVSS | low polyreactivity
14 | QVQLVESGGGLVQAGGSLRLSCAASGFIFGPYAMGWYRPAPGKERELVASISNSGDSTYADSVKGRFTISRDTAKNTVYLQMNSLKPEDTAVYYCNADGFVGTPSVDYDYWGQGTQVTVSS | low polyreactivity
15 | QVQLVESGGGLVQAGGSLRLSCAASGSTFFDYAMGWYRQAPGKERELVAVISDGGTTTYADSVKGRFTISRDNAKNTVYLQMNSLKPEDTAVYYCAAENQDGLLVILGGYGYWGQGTQVTVSS | low polyreactivity
16 | QVQLVESGGGLVQAGGILRLSCAASGSTFTYNVMGWYRQAPGKERYLVAAISWSGGSTFYADSVKGRFTISRDNAKNTVYLQMNRLKPEDTAVYYCNKDHLVYPSEFYYWGQGTQVTVSS | low polyreactivity
17 | QVQLVESGGGLVQAGGSLRLSCAASGGTFNANGMGWYRQAPGKERELVAAISQRAGRTYYADSVKGRFTISRDNAKNTVYLQMNSLKPEDTAVFYCAKRPTDRRFGSGYWGQGTQVTVSS | high polyreactivity
18 | QVQLVESGGGLVQAGGSLRLSCAASGSIFDVNAMGWYRQAPWKERELVAAISDSGGSTYYADSVKGRFTISRDNANNTVYLQMNSLKPEDTAVYYCNADWSWYNYYDFDYWGQGTQVTVSS | low polyreactivity
19 | QHQLVESGGGLVQAGASLRLSCAASGRTFFKNAKGWYRQAPGKERELVAGISRTGSTNYADSVKGRFTISSDNAKNTVYLEMNSLKPEDTAVYYCAAGVLGLPLRHRYDYWGQGTQVTVSS | low polyreactivity
20 | QVQLVESGGGLVQAGGSLRLSCAASGRIFDPYAMGWYRQAPGKERELVAAIDWSDGGTYYADSVKGRFTISRDNAKNTVYLQMNSLKPEDTAVYYCAADLLDISYYDGMDYWGQGTQVTVSS | low polyreactivity
21 | QVQLVESGGGLVQAGGSLRLSCAASGSTFYGYAMGWYRQAPGKERELVAAITSTVITDYADSVKGRFTISRDNAKNTVYLQMNSLKPEDTAVYYCNKDRATRVTAEFRGDDDYWGQGTQVTVSS | low polyreactivity
22 | QVQLVESGGGLVQAGGSLRLSCAASGSIFVTNAMGWYRQAPGKERELVAAINQGGGSTYYADSVKGRFTISRDNAKNTVYLQMNSLKPEDTAVYYCATDAPYFVPFSTNGEFGDEYWGQGTQVTVSS | low polyreactivity

Row | Sequence | polyreactivity (PSR sort gate)
23 | QVQLVESGGGLVQAGGSLRLSCAASGSIFYGNAMGWYRQAPGKERELVAAIDGTGASTYYADSVKGRFTISRDNAKNTVYLQMNSLKPEDTAVYYCNKALTSKDYPVRTVERDYWGQGTQVTVSS | low polyreactivity
24 | QVQLVESGGGLVQAGGSLRLSCAASGITFSKYAMGWYRQAPGKERELVAAITRSGGSTYYADSVKGRFTISRDNAKNTVYLQMNSLKPEDTAVYYCNARGYVTGGDGGYGYWGQGTQVTVSS | high polyreactivity
25 | QVHLVESVGGLVQAGGSLSLSCAASGLIFDGYAMGWYRQAPGKERDLVAAITWRGGRTYADSVKGRFTISRDNAKNTVYLQMNSLQPEVTAVYYCAVRRWGTSFVEDDYWGQGTQVTVSS | low polyreactivity
26 | QVQLVESGGGLVQAGGSLRLSCAASGGICGYYAMGWYRQAPGKERELVAAISWTGGSTYYADSVKGRFTISRDNAKNTVYLQMNSLKPEDTAVYYCAASDSFGYDYWGQGTQVTVSS | high polyreactivity
27 | QVQLVESGGGLVQAGGSLRLSCAASGYTFGLYTMGWYRQAPGKEREFVATIDWSEGGTHYADSVKGRFTISRDIAKISVYLQMNSLKPEYTAVYYCNADWYAYPYGYWGQGTQVTVSS | low polyreactivity
28 | QVQLVESGGGLVQAGGSLRLSCAASGRTFAQYAMGWYRQAPGKERELVAGISRSGGSTYYADCVKGRFTISRDNAKNTVYLQMNSLKPEDTAVYYCAARWRGARWYYYWGQGTQVTVSS | high polyreactivity
29 | QLQLVESGGGLVQAGGSLRLSCAASGSTFSYNAMGWYRQAPWKERELVAAISGSGGTTYYADSVKVRVTISRDNAKNTVYLQMNSLKPEDTAVYYCAARPFRSWRYDYWGQGSQVTVSS | low polyreactivity
30 | QVQLVESGGGLVQAGGSLRLSCAASGSIFGYYAMGWYRQAPGKERELVAAISYRGGSTYYADSVKGRFTISRDNAKNTVYLQMNSLKPEDTAVYYCNAPFLGAHHYGYEYWGQGTQVTVSS | high polyreactivity
31 | QVQLVESGGRLVQSGGSLRLSCAASGFIFSYNAMGLYRQAPGKERELVASIRTRGGSTYYADSVKGRFTISRDNAKNSVYLQMNSLKPEDTAVYYCAARPFQRRYDYWGQGTQVTVST | low polyreactivity
32 | QVQLVESGGGLVQAGGSLRLSCAASGRIFYYNAMGWYRQSPGKEREFVAAISSGGGSTYYADSVKGRFTISRDNAKNTVYLQMNSLKPEDTAVYYCAAKRQFYRGPAQALSGYGYWGQGTQVTVSS | high polyreactivity
33 | QVQLVESGGGLVQAGGSLRLSCAASGSIFGYYAMGWYRQAPGKERELVAAIDSGGVSTYYADSVKGRFTISRDIAKNTVYLQMNSLKAEDTAVYYCAKRGPVRKTAYDYWGQGTQVTVSS | low polyreactivity
34 | QVQLVESGGGLVQAGGSLRLSCAASGRIFITNAMGGYRQAPGKERELVASITVSGDSTYYADSVKGRFTISRDNAKNTVYLQMNSLKPEDTAVYYCAADYYALDKVLGYNYWGQGTQVTVSS | low polyreactivity
35 | QVQLVESGGGLVQAGGSLRLSCAASGSTFKVYTMGWYRQAPGKERELVAAITGGGGSTYYADSVKGRFTISRDNAKNTVSLQMNSLKPEDTAVYYCAAQKRGPGYPYYYWGQGTQVTVSS | high polyreactivity
36 | QVQLVESGGGLVQAGGSLRLSCAASGNTFVYNDMGWYRQAPGKERELVADIRYSGSTYYADSVKGRFTISRDNAKNTVYLQMNSLKPEDTAVYYCAVDSYYFLKDPISYGLYYYWGQGSQVTVSS | low polyreactivity
37 | QVQLVESGGGLVHAGGSLRLSCAASGRIFRWYAMGWYRQAPGKERELVAAISSRGGSTYYADSVKGRFTISRDNAKNTVYLQMNSLKPEDTAVYYCAADTSGWQPRYDYWGQGTQVTVSS | high polyreactivity
38 | QVQLVESGGGLVQAGGSLRLSCAASGSIFNHYAMGWYRQAPGKERELVAAISGSGGSTYYADSVKGRFTISRDNAQNTVYLQMYSLKPEDTAVYYCAARILRHWVSAEYYWGQGTQVTVSS | low polyreactivity
39 | QVQLVESGGGLVQAGGSRRLSCDASGRTFGYYAMGWYRQAPGKERELVAAISSSGGSTYYADSVKRRFTISRDNAKNTVYLQMNRLKPEDTAVYYCAADTSDTPDYYYWGPGTQVTVSS | low polyreactivity
40 | QVQLVESGGGLVQAGGSLRLSCAASGFTFTSYAMGWYIQAPGKERELVAAINRSGGSTTYADSVKGRFTISRDNAKNTVYLQMNSQKPEDTAVYYCAKAFRGHYWGQGTQVTVSS | high polyreactivity
41 | QVQLVESGGGLVQAGGSLRLSCAASGIFRQNAMGWYRQAPGKERELVAGISQSGGSTYYADSVKGRFTISRDNAKNTVYLQMNSLKPEDTSVYYCALVSIWGYDYWGQGTQVTVSS | low polyreactivity
42 | QVQLVESVGGLVQAGGSLRLSCAASGYIFGYNAMGWYRQAPGKERELVAAISRSAGRTYYADSVKGRFTISRDNAKNTVYLQMNSLKPEDTAVYYCAAQSYWLGYEYWGQGTQVTVSS | high polyreactivity
43 | QVQLVESGGGLVQAGGSLRLSCAASGRILYHYAMGWYRQAPGKERELVAAITFSGDTTYYADSVKGRFTISRDNAKNTVYLQMNSLKPVDTAVYYCNTVYYWNYVSRLYDYWGQGTQVTVSS | high polyreactivity
